The text below walks through data of patent US20200010567A1 (NEURIMMUNE, published 2020).

For one assay, the target named is T1, (GP)15: H-C(GP)15-OH.
T1 construct: synthetic, not coupled to BSA; also called poly-GP DPR protein peptide
T1 peptide: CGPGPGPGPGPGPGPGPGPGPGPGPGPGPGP
Briefly: indirect ELISA, uncoupled peptide coated, antibody titrated [also D00014 FIG. 3H]. The protocol: (§1) In brief, dipeptide repeat proteins were synthesized and purified by Schafer-N(Copenhagen, Denmark): (GA)₁₅: H-CHHHHHH(GA)₁₅-OH; (GP)₁₅: H-C(GP)₁₅-OH; (GR)₁₅: H-C(GR)₁₅-OH; (PA)₁₅: H-C(PA)₁₅-OH; (PR)₁₅: H—C(PR)₁₅-OH. DPR protein peptides were then conjugated via a bifunctional linker (SMCC) to bovine serum albumin (BSA). 96-well microplates (Corning Incorporated, Corning, USA) were coated with BSA-coupled or -uncoupled dipeptide repeat protein peptides at a concentration of either 5 μg/ml or 20 μg/ml in coating buffer (15 mM Na₂CO₃, 35 mM NaHCO₃, pH 9.42). Non-specific binding sites were blocked for 1 h at room temperature with PBS/0.1% Tween®-20 containing 2% BSA (Sigma-Aldrich, Buchs, Switzerland). Primary antibodies were diluted to the indicated concentrations and incubated 1 h at room temperature, followed by incubation with a donkey anti-human IgG Fcγ-specific antibody conjugated with HRP (Jackson ImmunoResearch Laboratories, Inc., West Grove, USA). Binding was determined by measurement of HRP activity in a standard colorimetric assay. EC₅₀ values were estimated by non-linear regression using GraphPad Prism software (San Diego, USA).
For orientation: In an ELISA, binding on a coated surface is turned into a signal by an enzyme label.

Assay [1] has as its target T2, (GA)15: H-CHHHHHH(GA)15-OH.
T2 construct: synthetic, not coupled to BSA; also called poly-GA DPR protein peptide
T2 peptide: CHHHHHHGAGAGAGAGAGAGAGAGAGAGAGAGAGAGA
Briefly: indirect ELISA, uncoupled peptide coated, antibody titrated [also D00013 FIG. 3D]. How it is done:
as §1

B1: NI-308.46E9 (antibody, V domains shown)
VH: QVQLQESGPGLVKPSETLSLTCTVSGASISGSTYYWGWIRQPPGKGLEYIGRIYYSGSTYYNPSLKSRATISVDTSKNQLSLTLSSVTAADTAVYYCVRPFYAGSGNSPFDYWGQGTLVTVSS
VL: CEIVLTQSPATVSVSPGERATLSCRASQSVSTNLAWYQQKPGQPPRLLIYGASTRATGIPARFSGSGSGAEFTLTISSLQSEDFVVYYCQQYNNWPPAFGGGTKVEIK
notes: Recombinant complete human IgG1, kappa
As usually defined, the EC50 is the concentration at which the effect is half-maximal. A high value points to weaker potency. B1 yielded an EC50 with (GP)15: H-C(GP)15-OH of 22 nM.

B2: NI-308.28G1 (antibody, V domains shown)
VH: QVQLQESGPRLVKPSETLSLTCTVAGGSVNSYYWTWIQQSPGKGLEWLGRIYIAGRTNYNPSLTSRIALSVDTSRNQLSLKLTSVTAADTAIYYCARWGAESGDYYYGVDVWGPGTLVTVSS
VL: EIVMTQSPLSLPVTPGEPASISCKSSEGLLHSNGYTYLDWYLQKPGQAPQLLIFLASNRAAGVPDRFSGSGSGTDFTLKISRVEAEDVGVYYCMQAIQSPWTFGPGTKVEIK
notes: as for B1
B2 came in with an EC50 in assay [1] of 2 nM.
